Assay [1] has as its target T1, HLA-A2 on T2 cells alone (not pulsed with peptide) (human).
T1 construct: TAP-deficient HLA-A2+ T2 cells with no peptide added; Also used as the HLA-A2 that pulsed peptides stabilise; also called T2 alone; T2 cells left unpulsed
In words: flow cytometry, phage clones on T2 cells. Background: In flow cytometry, cells or beads pass a laser one at a time.

In assay [2] the target is T2, WT1 RMF (…)/HLA-A2 complex on cells (human).
T2 construct: On T2 cells pulsed with the peptide, on cells expressing the RMF minigene, or naturally presented on WT1+/HLA-A2+ tumour cells; also called RMF/HLA-A2; WT1 RMF/A2 complex
In words: flow cytometry, phage clones on RMF-pulsed T2 cells.

Assay [3] addresses T3, TSTP1-10-mer (…)/HLA-A2 complex on T2 cells (human).
T3 construct: Potential off-target peptide pulsed onto T2 cells; also called Tyrosyl protein sulfotransferase 1 peptide
Briefly: flow cytometry, T2 cells alone or pulsed with peptide, stained with BiTE at 1 µg/ml, MFI.

Assay [4] has as its target T4, biotinylated WT1 RMF pMHC complex (human).
T4 construct: Soluble biotinylated complex loaded on the Biacore CAP chip; also called HLA-A2-WT1 RMF complex
Briefly: SPR (Biacore), biotinylated pMHC on CAP chip, BiTE as analyte 150 to 4.6875 nM, 1:1 binding model; clone #34 BiTE.

For assay [5], the target named is T4, biotinylated WT1 RMF pMHC complex. Briefly: SPR (Biacore), biotinylated pMHC on CAP chip, BiTE as analyte 150 to 4.6875 nM, 1:1 binding model; clone #18 BiTE.

B1: ESK2 clone 14 (Clone 14 anti-WTMC antibody moiety), phage clone (scFv, V domains shown)
VH: EVQLVQSGAEVKKPGASVKISCKTSGYTFTDYYLHWVRQAPVQGLEWMGYVDPYDGYTHYAQNFQGRVTMTTDTSTSTAYMELSSLRSEDTAVYYCARFSGTRQDSHWGQGTLVTVSS
VL: QSALTQPPSASGSPGQSVTISCTGTSSDVGGYNYVSWYQQHPGKAPKLMIYEVSKRPSGVPDRFSGSKSGNTASLTVSGLQAEDEADYYCSSYAGSNNLAVVFGGGTKLTVLG
notes: Human scFv on phage (E-ALPHA library); also called ESK2-14
Turning to B1, in assay [1], the binding result is “no binding”.

B2: ESK2 clone 15 (Clone 15 anti-WTMC antibody moiety), phage clone (scFv, V domains shown)
VH: QVQLVQSGAEVKKPGASVKVSCKASGYTFTDFYIHWVRQAPGQGPEWMGWVNPKSGGTNYAQKFQGRVTMTRDTSISTAYMALSRLRSDDTAVYYCARSWQGMSWESVEDVWGQGTLVTVSS
VL: QSVLTQPPSVSGAPGQRVTISCTGSSSNIGAGYDVHWYQQLPGTAPKLLIYGNSNRPSGVPDRFSGSKSGTSASLAITGLQAEDEADYYCQSYDSSLSGAVFGTGTKVTVLG
notes: Human scFv on phage (E-ALPHA library); also called ESK2-15
With B2, the binding result was “binds” in assay [2] and “no binding” in assay [1].

B3: ESK2 clone 17 (Clone 17 anti-WTMC antibody moiety), phage clone (scFv, V domains shown)
VH: EVQLVQSGAEVKKPGESLKISCKGSGYSFTSYWIGWVRQMPGKGLEWMGIIYPGDSDTRYSPSFQGQVTISADKSISTAYLQWSSLKASDTAVYYCARGGYIYYDAWGQGTLVTVSS
VL: SYVLTQPPSVSEAPRQRVTISCSGSRSNVGNNAVSWYQHLPGKAPKLLIYYDDLMPSGVSDRFSGSKSGTSASLAISGLQSEDEADYYCAAWDDSLNGLVFGGGTKLTVLG
notes: Human scFv on phage (E-ALPHA library); also called ESK2-17
With B3, the binding result in assay [2] is listed as “binds”; in assay [1] it was “no binding”.

B4: ESK2 clone #34 BiTE (bispecific antibody, V domains shown)
VH: QVQLVQSGTEVRKPGASLKVSCTTSGYIFTGYYIHWVRQVPGQGLEWMGWINPNSGVTEFAQGFQGRITMTRDTSTSTVYMELSRLTSDDTAVYYCAREGVWGYYDSWGQGTLVTVSS
VL: SSELTQDPAVSVALGQTVRITCQGDSLRSYYASWYQQKPGQAPVLVIYDKNNRPSGIPDRFSGSSSGNTASLTITGAQAEDEADYYCNSRDSSGNHHVVFGGGTKLTVLG
notes: made in CHO cells; also called ESK2-#34 BiTE
A word on the Kd: it is the constant that tells how readily two partners part at equilibrium. High values mean a looser complex, low ones a tighter complex. Consider B4, for which, in assay [3], the binding result is listed as “no binding (tested: 1 µg/ml)”. In addition, the Kd in assay [4] is 1.5 nM.

B5: ESK2 clone 30 (Clone 30 anti-WTMC antibody moiety), phage clone (scFv, V domains shown)
VH: QVQLQESGGGLVQPGGSLRLSCAASGFTFSSYWMHWVRQAPGKGLVWVSRINSDGSSTSYADSVKGRFTISRDNAKNTLYLQMNSLRAEDTAVYYCARSGYYMSDIWGQGTLVTVSS
VL: NFMLTQPPSLSVAPGKTATITCGGNNIGSKSVHWYQQKPGQAPVLVISYDSDRPSGIPERFSGSKSGNTATLTISRVEAGDEADYYCQVWDSSSDQYVFGSGTKVTVLG
notes: Human scFv on phage (E-ALPHA library); also called ESK2-30
With B5, the binding result in assay [2] is reported as “binds”; in assay [1], “no binding”.

B6: ESK2 clone 1 (Clone 1 anti-WTMC antibody moiety), phage clone (scFv, V domains shown)
VH: EVQLVQSGAEVKKPGASVKVSCKASGYNFTSYGISWVRQAPGQGLEWMGWISAYNGNTNYAQKLQGRVTMTTDTSTSTAYMELRSLRSDDTAVYYCARDWDYDFLTGWDGMDVWGQGTTVTVSS
VL: QSVVTQPPSVSAAPGQKVTISCSGSSSNIGNNYVSWYQQLPGTAPKLLIYYNNKRPSGIPDRFSGSKSGTSATLGITGLQTGDEADYYCGTWDSSLSAGQVFGGGTKLTVLG
notes: Human scFv on phage (E-ALPHA library); also called ESK2-1
For the molecule B6, the figures for the binding result in assay [2] and in assay [1] were “binds” and “no binding”, respectively.

B7: ESK2 clone 10 (Clone 10 anti-WTMC antibody moiety), phage clone (scFv, V domains shown)
VH: EVQLVESGGGVVQPGGSLRLSCAASGFTFDDYAMHWVRQAPGKGLEWVSLISGDGGSTYYADSVKGRFTISRDNSKNSLYLQMNSLRTEDTALYYCAKDMVAAAGWNPYYYYYGMDVWGQGTTVTVSS
VL: NFMLTQPHSVSESPGKTVTISCTRSSGGIATNYVQWYQQRPGNAPTAVIYVDNERPSGVPERFSGSIDTSSNSASLTISGLETEDEADYYCQSYDSNNHVVFGGGTKVTVLG
notes: Human scFv on phage (E-ALPHA library); also called ESK2-10
For B7, the values for the binding result in assay [2] and in assay [1] were “binds” and “no binding”, respectively.

B8: ESK2 clone 12 (Clone 12 anti-WTMC antibody moiety), phage clone (scFv, V domains shown)
VH: EVQLVESGGGLVQPGGSLRLSCVVSGITVSNNYMTWVRQAPGKGLEWVSVIYSDGSTYYADSVRGRFTISRDISKNTVFLQMNSLRAEDTAMYYCASDKVAVAWTDGLDSWGQGTMVTVSS
VL: SSELTQDPTVSVALGQTVRITCQGDSLRSYYGGWYQQKPGQAPILVFHGQTNRPSGIPDRFSGSSSGNTVSLTITGAQAEDEADYYCSSRDSSGNHWVFGGGTKLTVLG
notes: Human scFv on phage (E-ALPHA library); also called ESK2-12
In the case of B8, the binding result in assay [2] is on record as “binds”; in assay [1] it was “no binding”.

B9: ESK2 clone 36 (Clone 36 anti-WTMC antibody moiety), phage clone (scFv, V domains shown)
VH: EVQLVQSGAEVKKPGESLRISCKDSGYSFTSYWISWVRQMPGKGLEWMGRIDPSDSYTNYSPSFQGHVTISADKSISTAYLQWSSLKASDTAMYYCARMEIYSPDYWGQGTLVTVSS
VL: DIQLTQSPSSLSASVGDRVTISCRASQSINKYLNWYQQKPGEAPKLLIYGALRLQSGVPSRFSGSGSGTDYALTITSLQPEDFATYYCQQSYSTPLTFGGGTKVDIKR
notes: Human scFv on phage (E-ALPHA library); also called ESK2-36
With B9, the binding result in assay [2] is “binds”; in assay [1], “no binding”.

B10: ESK2 clone #18 BiTE (bispecific antibody, V domains shown)
VH: not shown
VL: QSVLTQPPSVSGAPGQRVSISCTGSSSNIGAGYVVHWYQHLPGTVPKLLIYDNSNRPSGVPDRFSGSNSGSSASLAVTGLQAEDEADYYCQSYDSSLSGWVFGGGTKLTVLG
notes: made in CHO cells; also called ESK2-#18 BiTE; ESK2-BiTE clone #18
B10 gave a Kd in assay [5] of 3 nM.

B11: ESK2 clone 11 (Clone 11 anti-WTMC antibody moiety), phage clone (scFv, V domains shown)
VH: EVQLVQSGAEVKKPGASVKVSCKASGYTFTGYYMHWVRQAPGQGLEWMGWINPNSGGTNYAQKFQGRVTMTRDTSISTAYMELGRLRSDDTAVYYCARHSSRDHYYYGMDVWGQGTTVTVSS
VL: QSVVTQPPSVSAAPGQRVTISCSGGSSNIGNNYVSWYQHLPGTAPKLLIYENNLKRPSGIPDRFSGSKSGTSATLGITGLQTGDEADYYCGTWDSSLNAGVFGGGTKLTVLG
notes: Human scFv on phage (E-ALPHA library); also called ESK2-11
For the molecule B11, the binding result in assay [1] is recorded as “no binding”.

B12: ESK2 clone 26 (Clone 26 anti-WTMC antibody moiety), phage clone (scFv, V domains shown)
VH: QVQLVQSGGGLVQPGRSLRLSCAASGFTFDDYAMHWVRQAPGKGLEWVSGISWNSGSIGYADSVKGRFTISRDNAKNSLYLQMNSLRPEDTAVYYCARGYMGHNWYDWGQGTLVTVSS
VL: LPVLTQPPSVSVAPGKTARITCGGNDIGSKAVHWYQQKPGQAPVLVIYYNRDRPSGIPERFSGSNSGNTATLTISRVEAGDEADYYCQVWDSFSDHYVFGTGTKVTVLG
notes: Human scFv on phage (E-ALPHA library); also called ESK2-26
Regarding B12, the binding result in assay [2] is “binds”; in assay [1] it was “no binding”.

B13: ESK2 clone 32 (Clone 32 anti-WTMC antibody moiety), phage clone (scFv, V domains shown)
VH: QVQLVQSGAEVKKPGSSVKVSCKASGDTFSSYAVSWVRQAPGQGLEWMGAINLIFGTVKYAQKFQGRITITADESTSTAYMELSSLRSEDTAVYYCARGHWSQVWWTSHSYDLWGQGTLVTVSS
VL: QAVLTQPPSVSVAPGKTARITCGGNNIGSKSVHWYQQKPGQAPVLVVYDDSDRPSGIPERFSGSNSGNTATLTISRVEAGDEADYYCQVWDSSSDHYVFGTGTKVTVLG
notes: Human scFv on phage (E-ALPHA library); also called ESK2-32
For the molecule B13, the binding result in assay [2] is recorded as “binds”; in assay [1], “no binding”.

These data come from US20260226173A1 (Memorial Sloan Kettering, published 2026).
